In patent publication US20220411483A1 (Chugai, published 2022):
Changes are numbered by the printed parent chain.

T1: FcγRIIb extracellular domain with C-terminal His tag (human, UniProt P31994 43-217)
T1 construct: extracellular domain; also called FcgRIIb; not shown: His tag at the C terminus
T1 sequence (looked up): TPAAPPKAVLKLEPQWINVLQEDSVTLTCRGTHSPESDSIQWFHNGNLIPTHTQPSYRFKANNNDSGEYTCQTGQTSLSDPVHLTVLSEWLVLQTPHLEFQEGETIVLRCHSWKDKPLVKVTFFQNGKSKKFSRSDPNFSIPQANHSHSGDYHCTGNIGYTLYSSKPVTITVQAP

T2: FcγRIIa R type extracellular domain with C-terminal His tag (human, UniProt P12318 34-217)
T2 construct: extracellular domain; also called FcgRIIaR; not shown: His tag at the C terminus
T2 sequence (looked up): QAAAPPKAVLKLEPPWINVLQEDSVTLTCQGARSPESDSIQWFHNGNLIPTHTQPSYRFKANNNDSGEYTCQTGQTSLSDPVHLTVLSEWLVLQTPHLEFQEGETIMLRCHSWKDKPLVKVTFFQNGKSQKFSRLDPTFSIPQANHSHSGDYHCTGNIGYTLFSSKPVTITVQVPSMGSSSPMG

B1: IL6R-BP505/IL6R-L (antibody, human IgG1, kappa, name in EU numbering)
heavy: QVQLQESGPGLVKPSETLSLTCAVSGHSISHDHAWSWVRQPPGEGLEWIGFISYSGITNYNPSLQGRVTISRDNSKNTLYLQMNSLRAEDTAVYYCARSLARTTAMDYWGEGTLVTVSSASTKGPSVFPLAPSSKSTSGGTAALGCLVKDYFPEPVTVSWNSGALTSGVHTFPAVLQSSGLYSLSSVVTVPSSSLGTQTYICNVNHKPSNTKVDKKVEPKSCDKTHTCPPCPAPDLLGDDSVFLFPPKPKDTLMISRTPEVTCVVIDVAEEDGDVKFNWYVDGVEVHNAKTKPREEQYNSTYRVVSVLTVLHQDWLNGKEYKCKVSNKALPAPIEKTISKAKGQPREPQVYTLPPSRDELTKNQVSLTCLVKGFYPSDIAVEWESNGQPENNYKTTPPVLDSDGSFFLYSKLTVDKSRWQQGNVFSCSVMHEALHNHYTQESLSLSP
light: not shown
notes: human IgG1
B2: IL6R-BP509/IL6R-L (antibody, human IgG1, kappa, name in EU numbering)
heavy: B1 heavy with Y298D
light: not shown
notes: human IgG1
B3: IL6R-BP567/IL6R-L (antibody, human IgG1, kappa, name in EU numbering)
heavy: B1 heavy with D239G, D274E, Y298D
light: not shown
notes: human IgG1
B4: IL6R-BP559/IL6R-L (antibody, human IgG1, kappa, name in EU numbering)
heavy: B1 heavy with D235E, D239G, Y298D
light: not shown
notes: human IgG1
B5: IL6R-BP560/IL6R-L (antibody, human IgG1, kappa, name in EU numbering)
heavy: B1 heavy with D235E, D239G, I266V, A269G, D274E, Y298D, A332R
light: not shown
notes: human IgG1
B6: IL6R-BP504/IL6R-L (antibody, human IgG1, kappa, name in EU numbering)
heavy: B1 heavy with D274P
light: not shown
notes: human IgG1
B7: IL6R-BP568/IL6R-L (antibody, human IgG1, kappa, name in EU numbering)
heavy: B1 heavy with D239G, D274E
light: not shown
notes: human IgG1
B8: IL6R-BP562/IL6R-L (antibody, human IgG1, kappa, name in EU numbering)
heavy: B1 heavy with D235E, I266V, A269S, E270D, Y298D, A332R
light: not shown
notes: human IgG1
B9: IL6R-BP564/IL6R-L (antibody, human IgG1, kappa, name in EU numbering)
heavy: B1 heavy with D235E, I266V, A269S, Y298D, A332R
light: not shown
notes: human IgG1
B10: IL6R-BP549/IL6R-L (antibody, human IgG1, kappa, name in EU numbering)
heavy: B1 heavy with D235E, I266V, A269G, D274E, A332R
light: not shown
notes: human IgG1

The binders below were run against T3, FcγRIa extracellular domain with C-terminal His tag (human, UniProt P12314 16-292) (assay: SPR, antibody captured, FcgR analyte).
T3 construct: also called FcgRIa; CD64; not shown: His tag at the C terminus
T3 sequence (P12314 16-292): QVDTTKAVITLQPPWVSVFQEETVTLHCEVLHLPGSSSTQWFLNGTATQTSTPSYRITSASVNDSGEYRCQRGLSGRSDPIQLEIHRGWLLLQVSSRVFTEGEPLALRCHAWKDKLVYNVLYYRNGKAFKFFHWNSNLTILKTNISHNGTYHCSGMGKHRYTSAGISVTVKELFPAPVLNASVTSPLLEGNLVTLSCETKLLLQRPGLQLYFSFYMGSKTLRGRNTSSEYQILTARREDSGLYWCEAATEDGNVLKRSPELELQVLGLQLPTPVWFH
B1 gave a Kd of 1.1 nM.
With B2 the Kd was 1.1 nM.
Work on B3 yielded a Kd of 0.21 nM.
In the case of B4, the Kd is reported as 1.1 nM.
B5 showed a Kd of 5.6 nM.
Binder B6 has a Kd of 1.4 nM.
Binder B7 has a Kd of 0.19 nM.
For B8, the Kd was 25 nM.
B9 was tested, and the Kd was 31 nM.
For B10, the Kd was 18 nM.

Each binder was assayed against T1, FcγRIIb extracellular domain with … (assay: SPR, antibody captured, FcgR analyte).
Work on B1 yielded a Kd of 21 nM.
For B2, the Kd was 18 nM.
Work on B3 yielded a Kd of 14 nM.
In the case of B4, the Kd is reported as 28 nM.
For B5, the Kd was 180 nM.
Work on B6 yielded a Kd of 24 nM.
B7 showed a Kd of 15 nM.
Work on B8 yielded a Kd of 24 nM.
Binder B9 has a Kd of 22 nM.
B10 gave a Kd of 16 nM.

Each binder was assayed against T2, FcγRIIa R type extracellular domain … (assay: SPR, antibody captured, FcgR analyte).
Binder B1 has a Kd of 430 nM.
B2 gave a Kd of 520 nM.
B3 showed a Kd of 890 nM.
With B4 the Kd was 1600 nM.
With B5 the Kd was 4200 nM.
B6 was tested, and the Kd was 450 nM.
For B7, the Kd was 680 nM.
With B8 the Kd was 680 nM.
For B9, the Kd was 580 nM.
B10 showed a Kd of 570 nM.

These binders were tested against T1, FcγRIIb extracellular domain with … (assay: SPR; KD of IL6R-B3/IL6R-L divided by KD of variant).
For B1, the “Relative FcgRIIb-binding Activity” value was 144.
For B2, the “Relative FcgRIIb-binding Activity” value was 174.
With B3 the “Relative FcgRIIb-binding Activity” value was 224.
For B4, the “Relative FcgRIIb-binding Activity” value was 110.
B5 was tested, and the “Relative FcgRIIb-binding Activity” value was 16.8.
With B6 the “Relative FcgRIIb-binding Activity” value was 127.
In the case of B7, the “Relative FcgRIIb-binding Activity” value is reported as 210.
For B8, the “Relative FcgRIIb-binding Activity” value was 131.
In the case of B9, the “Relative FcgRIIb-binding Activity” value is reported as 140.
B10 was tested, and the “Relative FcgRIIb-binding Activity” value was 196.

The binders below were run against T2, FcγRIIa R type extracellular domain … (assay: SPR; KD of IL6R-B3/IL6R-L divided by KD of variant).
In the case of B1, the “Relative FcgRIIaR-binding Activity” value is reported as 2.5.
In the case of B2, the “Relative FcgRIIaR-binding Activity” value is reported as 2.1.
With B3 the “Relative FcgRIIaR-binding Activity” value was 1.2.
In the case of B4, the “Relative FcgRIIaR-binding Activity” value is reported as 0.7.
B5 was tested, and the “Relative FcgRIIaR-binding Activity” value was 0.3.
With B6 the “Relative FcgRIIaR-binding Activity” value was 2.4.
B7 was tested, and the “Relative FcgRIIaR-binding Activity” value was 1.6.
For B8, the “Relative FcgRIIaR-binding Activity” value was 1.6.
With B9 the “Relative FcgRIIaR-binding Activity” value was 1.9.
With B10 the “Relative FcgRIIaR-binding Activity” value was 1.9.
